According to patent US20160297889A1 (TORAY INDUSTRIES, published 2016):
Residue numbers refer to the chain shown, from its start.

B1: humanized antibody #7 (antibody, V domains shown)
VH: EVQLVESGGGLVQPGGSLRLSCAASGFSLSSHSLGWVRQAPGKGLEWIGDIRSGGSAYYANWAKGRFTISRDNSKNTLYLQMNSLRAEDTAVYYCTRTNGPSDLTNRLDLWGQGTLVTVSS
VL: QVLTQSPSSLSASVGDRVTINCQASQSLYNNENLAWFQQKPGKVPKRLIYGASTLASGVSSRFSGSGSGTEFTLTISSLQCEDFAIYYCLGEFSCGSADCFAFGGGTKVEIK
B2: humanized antibody #2 (antibody, V domains shown)
VH: B1 VH
VL: EIVLTQSPSSLSASVGDRVTINCQASQSLYNNENLAWFQQKPGKVPKRLIYGASTLASGVSSRFSGSGSGTEFTLTISNLQPEDFATYYCLGEFSCGSADCFAFGGGTKVEIK
B3: humanized antibody #6 (antibody, V domains shown)
VH: B1 VH with Y94F
VL: B1 VL
B4: humanized antibody #10 (antibody, V domains shown)
VH: B1 VH with V2Q, Q3S
VL: B1 VL
B5: humanized antibody #0 (antibody, V domains shown)
VH: B1 VH with Y94F
VL: B2 VL with E1A, V3Q, L4M, V45A, E72D, N79S, T87I

biological target: T1, CAPRIN-1 protein expressed on the membrane surface of human cancer cells (human, UniProt Q14444 2-709); test: cell-based or functional assay
T1 sequence (looked up): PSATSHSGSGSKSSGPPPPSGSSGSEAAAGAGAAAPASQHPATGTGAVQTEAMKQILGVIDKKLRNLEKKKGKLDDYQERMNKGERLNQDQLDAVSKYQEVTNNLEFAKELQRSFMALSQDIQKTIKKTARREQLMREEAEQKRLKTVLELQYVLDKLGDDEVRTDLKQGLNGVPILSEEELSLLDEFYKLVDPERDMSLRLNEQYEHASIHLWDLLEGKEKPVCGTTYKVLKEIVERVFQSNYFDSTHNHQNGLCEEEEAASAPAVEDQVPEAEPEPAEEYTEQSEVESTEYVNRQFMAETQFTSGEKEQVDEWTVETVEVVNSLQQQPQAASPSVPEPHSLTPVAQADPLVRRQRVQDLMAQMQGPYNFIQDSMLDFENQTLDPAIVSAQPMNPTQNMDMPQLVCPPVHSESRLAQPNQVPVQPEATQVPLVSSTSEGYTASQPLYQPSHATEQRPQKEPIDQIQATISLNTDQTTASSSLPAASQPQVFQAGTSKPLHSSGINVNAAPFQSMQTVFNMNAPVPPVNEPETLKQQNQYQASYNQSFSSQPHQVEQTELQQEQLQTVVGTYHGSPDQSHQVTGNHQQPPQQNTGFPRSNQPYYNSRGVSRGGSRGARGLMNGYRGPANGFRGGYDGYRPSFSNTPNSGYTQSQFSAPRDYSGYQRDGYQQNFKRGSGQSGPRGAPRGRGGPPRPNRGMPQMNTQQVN

Binder	ADCC cytotoxic activity (51Cr release) on 22Rv1 [%]	ADCC cytotoxic activity (51Cr release) on A-673 [%]	ADCC cytotoxic activity (51Cr release) on BT-474 [%]	ADCC cytotoxic activity (51Cr release) on Caki-2 [%]	ADCC cytotoxic activity (51Cr release) on FaDu [%]	ADCC cytotoxic activity (51Cr release) on G-361 [%]	ADCC cytotoxic activity (51Cr release) on HEC-1-A [%]	ADCC cytotoxic activity (51Cr release) on HT-29 [%]	ADCC cytotoxic activity (51Cr release) on HT-1080 [%]	ADCC cytotoxic activity (51Cr release) on HT-1376 [%]
B1	≥ 49	≥ 50	≥ 54	≥ 37	≥ 50	≥ 25	≥ 52	≥ 43	≥ 30	≥ 45
B2	≥ 45	≥ 46	≥ 50	≥ 33	≥ 40	≥ 21	≥ 45	≥ 40	≥ 25	≥ 40
B3	≥ 49	≥ 50	≥ 54	≥ 37	≥ 50	≥ 25	≥ 52	≥ 43	≥ 30	≥ 45
B4	≥ 49	≥ 50	≥ 54	≥ 37	≥ 50	≥ 25	≥ 52	≥ 43	≥ 30	≥ 45
B5	≥ 38	≥ 40	≥ 46	≥ 26	≥ 35	≥ 15	≥ 40	≥ 35	≥ 20	≥ 28

same assay, conditions: not given

Binder	ADCC cytotoxic activity (51Cr release) on Hep3B [%]	ADCC cytotoxic activity (51Cr release) on IM-9 [%]	ADCC cytotoxic activity (51Cr release) on MDA-MB-361 [%]	ADCC cytotoxic activity (51Cr release) on NCI-H2452 [%]	ADCC cytotoxic activity (51Cr release) on NCI-N87 [%]	ADCC cytotoxic activity (51Cr release) on NT/D1 [%]	ADCC cytotoxic activity (51Cr release) on OCI-AML5 [%]	ADCC cytotoxic activity (51Cr release) on OE33 [%]	ADCC cytotoxic activity (51Cr release) on Panc10.5 [%]	ADCC cytotoxic activity (51Cr release) on QG56 [%]
B1	≥ 28	≥ 35	≥ 52	≥ 35	≥ 45	≥ 37	≥ 20	≥ 35	≥ 35	≥ 46
B2	≥ 25	≥ 30	≥ 45	≥ 39	≥ 38	≥ 30	≥ 18	≥ 33	≥ 30	≥ 42
B3	≥ 28	≥ 35	≥ 52	≥ 35	≥ 45	≥ 37	≥ 20	≥ 35	≥ 35	≥ 46
B4	≥ 28	≥ 35	≥ 52	≥ 35	≥ 45	≥ 37	≥ 20	≥ 35	≥ 35	≥ 46
B5	≥ 21	≥ 27	≥ 40	≥ 31	≥ 34	≥ 25	≥ 15	≥ 30	≥ 24	≥ 38

same assay, conditions: not given

Binder	ADCC cytotoxic activity (51Cr release) on RD-ES [%]	ADCC cytotoxic activity (51Cr release) on RPM11666 [%]	ADCC cytotoxic activity (51Cr release) on Ramos [%]	ADCC cytotoxic activity (51Cr release) on SKOV3 [%]	ADCC cytotoxic activity (51Cr release) on T24 [%]	ADCC cytotoxic activity (51Cr release) on TGBC14TKB [%]	ADCC cytotoxic activity (51Cr release) on TT [%]	ADCC cytotoxic activity (51Cr release) on U-87MG [%]
B1	≥ 48	≥ 40	≥ 20	≥ 35	≥ 36	≥ 35	≥ 42	≥ 36
B2	≥ 40	≥ 36	≥ 18	≥ 31	≥ 33	≥ 30	≥ 35	≥ 29
B3	≥ 48	≥ 40	≥ 20	≥ 35	≥ 36	≥ 35	≥ 42	≥ 36
B4	≥ 48	≥ 40	≥ 20	≥ 35	≥ 36	≥ 35	≥ 42	≥ 36
B5	≥ 31	≥ 30	≥ 15	≥ 27	≥ 30	≥ 25	≥ 30	≥ 24
